According to patent publication US20230002480A1:

Assays:
Assay in all cases: cell-based or functional assay
[1] = biological target: HIV-1 Env of pseudovirus 7030102001E5(Rev-) (HIV-1)
[2] = biological target: HIV-1 Env of pseudovirus AC10.0.29 (HIV-1)
[3] = biological target: HIV-1 Env of pseudovirus Ce0682_E4 (HIV-1)
[4] = biological target: HIV-1 Env of pseudovirus Ce704809221_1B3 (HIV-1)
[5] = biological target: HIV-1 Env of pseudovirus Ce2060_G9 (HIV-1)
[6] = biological target: HIV-1 Env of pseudovirus WITO4160.33 (HIV-1)
[7] = biological target: HIV-1 Env of pseudovirus ZM214M.PL15 (HIV-1)
[8] = biological target: HIV-1 Env of pseudovirus CNE20 (HIV-1)
[9] = biological target: HIV-1 Env of pseudovirus 246F C1G (HIV-1)
[10] = biological target: HIV-1 Env of pseudovirus Ce0393_C3 (HIV-1)
[11] = biological target: HIV-1 Env of pseudovirus CNE21 (HIV-1)
[12] = biological target: HIV-1 Env of pseudovirus ZM249M.PL1 (HIV-1)
[13] = biological target: HIV-1 Env of pseudovirus Du172.17 (HIV-1)
[14] = biological target: HIV-1 Env of pseudovirus TRJO4551.58 (HIV-1)
[15] = biological target: HIV-1 Env of pseudovirus ZM135M.PL10a (HIV-1)
[16] = biological target: HIV-1 Env of pseudovirus THRO4156.18 (HIV-1)
[17] = biological target: HIV-1 Env of pseudovirus CAP210.2.00.E8 (HIV-1)
[18] = biological target: HIV-1 Env of pseudovirus Q461.e2 (HIV-1)
[19] = biological target: HIV-1 Env of pseudovirus CNE52 (HIV-1)
[20] = biological target: HIV-1 Env of pseudovirus 1056_10_TA11_1826 (HIV-1)
[21] = biological target: HIV-1 Env of pseudovirus ZM197M.PB7 (HIV-1)

## N49P9 (antibody)
[1]
  IC50: 0.453 µg/mL
  IC80: 2.03 µg/mL
  MPI: 100
[2]
  IC50: 0.285 µg/mL
  IC80: 0.986 µg/mL
  MPI: 100
[3]
  IC50: 0.049 µg/mL
  IC80: 0.185 µg/mL
  MPI: 100
[4]
  IC50: 0.133 µg/mL
  IC80: 0.605 µg/mL
  MPI: 100
[5]
  IC50: 0.419 µg/mL
  IC80: 2.19 µg/mL
  MPI: 100
[6]
  IC50: 0.058 µg/mL
  IC80: 0.165 µg/mL
  MPI: 100
[7]
  IC50: 0.477 µg/mL
  IC80: 1.99 µg/mL
  MPI: 100
[8]
  IC50: 0.465 µg/mL
  IC80: 2.43 µg/mL
  MPI: 97
[9]
  IC50: > 50 µg/mL
  IC80: > 50 µg/mL
  MPI: 48
[10]
  IC50: 0.189 µg/mL
  IC80: 0.595 µg/mL
  MPI: 100
[11]
  IC50: > 50 µg/mL
  IC80: > 50 µg/mL
  MPI: 36
[12]
  IC50: 0.152 µg/mL
  IC80: 0.801 µg/mL
  MPI: 97
[13]
  IC50: 0.023 µg/mL
  IC80: 0.178 µg/mL
  MPI: 100
[14]
  IC50: 0.036 µg/mL
  IC80: 0.128 µg/mL
  MPI: 100
[15]
  IC50: 0.224 µg/mL
  IC80: 0.863 µg/mL
  MPI: 97
[16]
  IC50: 1.41 µg/mL
  IC80: 8.21 µg/mL
  MPI: 99
[17]
  IC50: > 50 µg/mL
  IC80: > 50 µg/mL
  MPI: 32
[18]
  IC50: 0.271 µg/mL
  IC80: 0.953 µg/mL
  MPI: 100
[19]
  IC50: 0.026 µg/mL
  IC80: 0.09 µg/mL
  MPI: 100
[20]
  IC50: 0.386 µg/mL
  IC80: 1.32 µg/mL
  MPI: 100
[21]
  IC50: 0.083 µg/mL
  IC80: 0.339 µg/mL
  MPI: 100

## N49P9.1 (antibody)
[1]
  IC50: 0.635 µg/mL
  IC80: 2.02 µg/mL
  MPI: 100
[2]
  IC50: 0.36 µg/mL
  IC80: 1.88 µg/mL
  MPI: 99
[3]
  IC50: 0.076 µg/mL
  IC80: 0.264 µg/mL
  MPI: 100
[4]
  IC50: 0.162 µg/mL
  IC80: 0.661 µg/mL
  MPI: 100
[5]
  IC50: 0.781 µg/mL
  IC80: 3.54 µg/mL
  MPI: 100
[6]
  IC50: 0.051 µg/mL
  IC80: 0.241 µg/mL
  MPI: 100
[7]
  IC50: 0.561 µg/mL
  IC80: 2.96 µg/mL
  MPI: 100
[8]
  IC50: 1.51 µg/mL
  IC80: 16.4 µg/mL
  MPI: 90
[9]
  IC50: > 50 µg/mL
  IC80: > 50 µg/mL
  MPI: 11
[10]
  IC50: 0.284 µg/mL
  IC80: 1.22 µg/mL
  MPI: 100
[11]
  IC50: > 50 µg/mL
  IC80: > 50 µg/mL
  MPI: 15
[12]
  IC50: 0.206 µg/mL
  IC80: 1.92 µg/mL
  MPI: 95
[13]
  IC50: 0.026 µg/mL
  IC80: 0.182 µg/mL
  MPI: 100
[14]
  IC50: 0.035 µg/mL
  IC80: 0.12 µg/mL
  MPI: 100
[15]
  IC50: 0.332 µg/mL
  IC80: 1.53 µg/mL
  MPI: 98
[16]
  IC50: 1.65 µg/mL
  IC80: 9.44 µg/mL
  MPI: 99
[17]
  IC50: > 50 µg/mL
  IC80: > 50 µg/mL
  MPI: 2
[18]
  IC50: 0.363 µg/mL
  IC80: 1.15 µg/mL
  MPI: 100
[19]
  IC50: 0.043 µg/mL
  IC80: 0.122 µg/mL
  MPI: 100
[20]
  IC50: 0.617 µg/mL
  IC80: 3.03 µg/mL
  MPI: 100
[21]
  IC50: 0.049 µg/mL
  IC80: 0.283 µg/mL
  MPI: 100

## N49P19 (antibody)
[1]
  IC50: 0.95 µg/mL
  IC80: 4.7 µg/mL
  MPI: 100
[2]
  IC50: > 50 µg/mL
  IC80: > 50 µg/mL
  MPI: 13
[3]
  IC50: 0.607 µg/mL
  IC80: 2.32 µg/mL
  MPI: 98
[4]
  IC50: 3.75 µg/mL
  IC80: 19.2 µg/mL
  MPI: 93
[5]
  IC50: 1.06 µg/mL
  IC80: 5.62 µg/mL
  MPI: 98
[6]
  IC50: 0.263 µg/mL
  IC80: 1.29 µg/mL
  MPI: 100
[7]
  IC50: 1.85 µg/mL
  IC80: 14.8 µg/mL
  MPI: 98
[8]
  IC50: 0.124 µg/mL
  IC80: 0.817 µg/mL
  MPI: 99
[9]
  IC50: > 50 µg/mL
  IC80: > 50 µg/mL
  MPI: 19
[10]
  IC50: > 50 µg/mL
  IC80: > 50 µg/mL
  MPI: 31
[11]
  IC50: > 50 µg/mL
  IC80: > 50 µg/mL
  MPI: 21
[12]
  IC50: > 50 µg/mL
  IC80: > 50 µg/mL
  MPI: 33
[13]
  IC50: > 50 µg/mL
  IC80: > 50 µg/mL
  MPI: 30
[14]
  IC50: 1.23 µg/mL
  IC80: 5.4 µg/mL
  MPI: 99
[15]
  IC50: > 50 µg/mL
  IC80: > 50 µg/mL
  MPI: 0
[16]
  IC50: 17.1 µg/mL
  IC80: > 50 µg/mL
  MPI: 69
[17]
  IC50: > 50 µg/mL
  IC80: > 50 µg/mL
  MPI: 0
[18]
  IC50: 0.774 µg/mL
  IC80: 4.05 µg/mL
  MPI: 100
[19]
  IC50: 0.175 µg/mL
  IC80: 0.491 µg/mL
  MPI: 100
[20]
  IC50: 0.925 µg/mL
  IC80: 3.15 µg/mL
  MPI: 100
[21]
  IC50: 38.4 µg/mL
  IC80: > 50 µg/mL
  MPI: 56
